{"source": "paper PMC6355197", "target": "afTMEM16 scramblase from Aspergillus fumigatus (Aspergillus fumigatus)", "assay": "cryo-EM structure; afTMEM16 in MSP1E3 nanodiscs of 3 POPE:1 POPG; three samples: 0.5 mM Ca2+, Ca2+-free (5 mM EDTA), 0.5 mM Ca2+ with 5 mole% C24:0 ceramide; buffer D (150 mM KCl, 50 mM Tris pH 8.0); maps refined in C1 and C2"}
{"substance": "afTMEM16 scramblase from Aspergillus fumigatus (natural protein)", "values": [{"measurement": "stoichiometry N", "value": 2}]}
